According to doi:10.1101/2025.05.20.655035:
Like-named read-outs stand apart in the source and are kept apart here.

T1: His6-TCP4 (TCP4-His6) (Arabidopsis thaliana, UniProt Q8LPR5 1-420)
T1 sequence: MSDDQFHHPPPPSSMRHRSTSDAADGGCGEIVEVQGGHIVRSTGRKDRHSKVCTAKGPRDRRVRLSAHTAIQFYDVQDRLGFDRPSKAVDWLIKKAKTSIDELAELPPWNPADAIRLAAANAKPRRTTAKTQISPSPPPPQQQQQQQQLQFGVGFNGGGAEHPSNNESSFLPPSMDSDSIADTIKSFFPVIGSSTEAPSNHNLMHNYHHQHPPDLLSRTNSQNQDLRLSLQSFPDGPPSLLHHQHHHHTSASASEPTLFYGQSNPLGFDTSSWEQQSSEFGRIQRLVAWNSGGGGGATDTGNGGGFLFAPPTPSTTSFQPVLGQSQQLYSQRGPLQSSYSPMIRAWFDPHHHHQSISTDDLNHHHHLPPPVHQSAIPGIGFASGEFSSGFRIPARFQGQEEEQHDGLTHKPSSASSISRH


Key:
His6-TCP4 (TCP4-His6) [1] = biological target: T1, His6-TCP4 (TCP4-His6); assay: EMSA
His6-TCP4 (TCP4-His6) [2] = biological target: T1, His6-TCP4 (TCP4-His6); assay: EMSA; remark: listed apart in the source

Binder	binding result (His6-TCP4 (TCP4-His6) [1])	binding result (His6-TCP4 (TCP4-His6) [2])
BS1 (dsDNA) DNA 1: TCAATTCAACTAGGCCCAGTTTCCTCCTTC DNA 2: GAAGGAGGAAACTGGGCCTAGTTGAATTGA	no binding	–
BS3-4 (dsDNA) DNA 1: CAACACACAAATGTGGTCCATTTCTTTTTGTTCATGTGGTCCAATTTTGGTATAT DNA 2: ATATACCAAAATTGGACCACATGAACAAAAAGAAATGGACCACATTTGTGTGTTG	–	binds
BS2 (dsDNA) DNA 1: GTGATGTTAAAATGGTCCTAAGTTGACATA DNA 2: TATGTCAACTTAGGACCATTTTAACATCAC	–	binds
BS5 (dsDNA) DNA 1: TTGCATATTGGTTGGTCCAAAAAGATCAAC DNA 2: GTTGATCTTTTTGGACCAACCAATATGCAA	no binding	–
